# According to patent US20260167728A1 (published 2026):
# What was measured:
# [1] = molecular target: T1, huCD3e-mFc (human, UniProt P07766 23-126); assay: Pool 3 screen
# T1 construct: not shown: mFc, not described
# [2] = molecular target: T1, huCD3e-mFc; assay: Pool 3 screen, R2
# [3] = molecular target: T1, huCD3e-mFc; assay: Pool 3 screen, R3
# T1 sequence (P07766 23-126): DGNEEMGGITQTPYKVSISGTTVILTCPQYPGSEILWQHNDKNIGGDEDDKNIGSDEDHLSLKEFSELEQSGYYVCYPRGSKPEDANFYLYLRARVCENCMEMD
Kd [1] [nM],Kd [2] [nM],Kd [3] [nM],Binder
,21.2,,"AC3886 (CD3.382) (scFv, V domains shown, Pool 3 format (remarks)) VH: EVQLVESGGGIVQPGGSLRLSCAASGFTFSTYAMNWVRQAPGKGLEWVGRIRTKRNNYATYYADSVKGRFTISRDDSKNTVYLQMNSLKTEDTAVYYCVRHENFGNAYVSWFAHWGQGTLVTVSS VL: ELVVTQEPSLTVSPGGTVTLTCRSSNGAVTSSNYANWVQQKPGQAPRGLIGGTNKRAPGTPARFSGSLLGGKAALTLSGVQPEDEAVYYCALWYPNLWVFGGGTKLTVL"
4.07,8,,"AC3802 (CD3.298) (scFv, V domains shown, Pool 3 format (remarks)) VH: EVQLVESGGGIVQPGGSLRLSCAASGFTFSTYAMNWVRQAPGKGLEWVGRIRTKRNNYATYYADSVKGRFTISRDDSKNTVYLQMNSLKTEDTAVYYCVRHENFGNSYVSWFAHWGQGTLVTVSS VL: ELVVTQEPSLTVSPGGTVTLTCRSSNGAVTSSNYANWVQQKPGQAPRGLIGGTNKRAPGTPARFSGSLDGGKAALTLSGVQPEDEAVYYCALWYPNLWVFGGGTKLTVL"
5.53,,4.4,"AC3805 (CD3.301) (scFv, V domains shown, Pool 3 format (remarks)) VH: EVQLVESGGGIVQPGGSLRLSCAASGFTFSTYAMNWVRQAPGKGLEWVGRIRTKRNDYATYYADSVKGRFTISRDDSKNTAYLQMNSLKTEDTAVYYCVRHENFGNSYVSWFAHWGQGTLVTVSS VL: ELVVTQEPSLTVSPGGTVTLTCRSSNGAVTSSNYANWVQQKPGQAPRGLIGGTNKRAPGTPARFSGSLLGGKAALTLSGVQPEDEAVYYCALWYPNLWVFGGGTKLTVL"
6.28,,4.6,"AC3809 (CD3.305) (scFv, V domains shown, Pool 3 format (remarks)) VH: EVQLVESGGGIVQPGGSLRLSCAASGFTFSTYAMNWVRQAPGKGLEWVGRIRTKRNDYATYYADSVKGRFTISRDDSKNTAYLQMNSLKTEDTAVYYCVRHENFGNSYVSWFAHWGQGTLVTVSS VL: ELVVTQEPSLTVSPGGTVTLTCRSSNGAVTSSNYANWVQQKPGQAPRGLIGGTNKRAPGTPARFSGSLEGGKAALTLSGVQPEDEAVYYCALWYPNLWVFGGGTKLTVL"
3.92,21.2,,"AC3801 (CD3.297) (scFv, V domains shown, Pool 3 format (remarks)) VH: EVQLVESGGGIVQPGGSLRLSCAASGFTFSTYAMNWVRQAPGKGLEWVGRIRTKRNNYATYYADSVKGRFTISRDDSKNTVYLQMNSLKTEDTAVYYCVRHENFGNSYVSWFAHWGQGTLVTVSS VL: ELVVTQEPSLTVSPGGTVTLTCRSSNGAVTSSNYANWVQQKPGQAPRGLIGGTNKRAPGTPARFSGSLGGGKAALTLSGVQPEDEAVYYCALWYPNLWVFGGGTKLTVL"
62.7,,,"AC3867 (CD3.363) (scFv, V domains shown, Pool 3 format (remarks)) VH: EVQLVESGGGIVQPGGSLRLSCAASGFTFSTYAMNWVRQAPGKGLEWVGRIRTKTNDYATYYADSVKGRFTISRDDSKNTAYLQMNSLKTEDTAVYYCVRHENFGNSYVSWFAHWGQGTLVTVSS VL: ELVVTQEPSLTVSPGGTVTLTCRSSNGAVTSSNYANWVQQKPGQAPRGLIGGTNKRAPGTPARFSGSLLEGKAALTLSGVQPEDEAVYYCALWYPNLWVFGGGTKLTVL"
,17,,"AC3878 (CD3.374) (scFv, V domains shown, Pool 3 format (remarks)) VH: EVQLVESGGGIVQPGGSLRLSCAASGFTFSTYAMNWVRQAPGKGLEWGGRIRTKRNNYATYYADSVKGRFTISRDDSKNTVYLQMNSLKTEDTAVYYCVRHENFGNSYVSWFAHWGQGTLVTVSS VL: ELVVTQEPSLTVSPGGTVTLTCRSSNGAVTSSNYANWVQQKPGQAPRGLIGGTNKRAPGTPARFSGSLLGGKAALTLSGVQPEDEAVYYCALWYPNLWVFGGGTKLTVL"
8.92,,,"AC3877 (CD3.373) (scFv, V domains shown, Pool 3 format (remarks)) VH: EVQLVESGGGIVQPGGSLRLSCAASGFTFSTYAMNWVRQAPGKGLEDVGRIRTKRNNYATYYADSVKGRFTISRDDSKNTVYLQMNSLKTEDTAVYYCVRHENFGNSYVSWFAHWGQGTLVTVSS VL: ELVVTQEPSLTVSPGGTVTLTCRSSNGAVTSSNYANWVQQKPGQAPRGLIGGTNKRAPGTPARFSGSLLGGKAALTLSGVQPEDEAVYYCALWYPNLWVFGGGTKLTVL"
5.14,,,"AC3659 (CD3.228) (bispecific antibody, V domains shown, Pool 2 format (remarks)) VH: EVQLVESGGGIVQPGGSLRLSCAASGFTFSTYAMNWVRQAPGKGLEWVGRIRTKRNNYATYYADSVKGRFTISRDDSKNTVYLQMNSLKTEDTAVYYCVRHENFGNSYVSWFAHWGQGTLVTVSS VL: ELVVTQEPSLTVSPGGTVTLTCRSSNGAVTSSNYANWVQQKPGQAPRGLIGGTNKRAPGTPARFSGSLLGGKAALTLSGVQPEDEAVYYCALWYPNLWVFGGGTKLTVL"
,,4.2,"AC3885 (CD3.381) (scFv, V domains shown, Pool 3 format (remarks)) VH: EVQLVESGGGIVQPGGSLRLSCAASGFTFSTYAMNWVRQAPGKGLEWVGRIRTKRNNYATYYADSVKGRFTISRDDSKNTVYLQMNSLKTEDTAVYYCVRHENFGASYVSWFAHWGQGTLVTVSS VL: ELVVTQEPSLTVSPGGTVTLTCRSSNGAVTSSNYANWVQQKPGQAPRGLIGGTNKRAPGTPARFSGSLLGGKAALTLSGVQPEDEAVYYCALWYPNLWVFGGGTKLTVL"
9.83,10.8,,"AC3850 (CD3.346) (scFv, V domains shown, Pool 3 format (remarks)) VH: EVQLVESGGGIVQPGGSLRLSCAASGFTFSTYAMNWVRQAPGKGLEWVGRIRTKTNNYATYYADSVKGRFTISRDDSKNTVYLQMNSLKTEDTAVYYCVRHENFGNSYVSWFAHWGQGTLVTVSS VL: ELVVTQEPSLTVSPGGTVTLTCRSSNGAVTSSNYANWVQQKPGQAPRGLIGGTNKRAPGTPARFSGSLLGGKAALTLSGVQPEDEAVYYCALWYPNLWVFGGGTKLTVL"
3.74,,,"AC3882 (CD3.378) (scFv, V domains shown, Pool 3 format (remarks)) VH: EVQLVESGGGIVQPGGSLRLSCAASGFTFSTYAMNWVRQAPGKGLEWVGRIRTKRNNYATYDADSVKGRFTISRDDSKNTVYLQMNSLKTEDTAVYYCVRHENFGNSYVSWFAHWGQGTLVTVSS VL: ELVVTQEPSLTVSPGGTVTLTCRSSNGAVTSSNYANWVQQKPGQAPRGLIGGTNKRAPGTPARFSGSLLGGKAALTLSGVQPEDEAVYYCALWYPNLWVFGGGTKLTVL"

# Further lines, the binder ahead of its results:
Binder,Kd [1] [nM],Kd [2] [nM],Kd [3] [nM]
"AC3797 (CD3.293) (scFv, V domains shown, Pool 3 format (remarks)) VH: EVQLVESGGGIVQPGGSLRLSCAASGFTFSTYAMNWVRQAPGKGLEWVGRIRTKRNNYATYYADSVKGRFTISRDDSKNTVYLQMNSLKTEDTAVYYCVRHENFGNSYVSWFAHWGQGTLVTVSS VL: ELVVTQEPSLTVSPGGTVTLTCRSSNGAVTSSNYANWVQQKPGQAPRGLIGGTNKRAPGTPARFSGSALGGKAALTLSGVQPEDEAVYYCALWYPNLWVFGGGTKLTVL",3.8,3.72,
"AC3798 (CD3.294) (scFv, V domains shown, Pool 3 format (remarks)) VH: EVQLVESGGGIVQPGGSLRLSCAASGFTFSTYAMNWVRQAPGKGLEWVGRIRTKRNNYATYYADSVKGRFTISRDDSKNTVYLQMNSLKTEDTAVYYCVRHENFGNSYVSWFAHWGQGTLVTVSS VL: ELVVTQEPSLTVSPGGTVTLTCRSSNGAVTSSNYANWVQQKPGQAPRGLIGGTNKRAPGTPARFSGSGLGGKAALTLSGVQPEDEAVYYCALWYPNLWVFGGGTKLTVL",3.05,5.75,
"AC3660 (CD3.229) (bispecific antibody, V domains shown, Pool 2 format (remarks)) VH: EVQLVESGGGIVQPGGSLRLSCAASGFTFNTYAMNWVRQAPGKGLEWVGRIRTKTNNYATYYADSVKGRFTISRDDSKNTVYLQMNSLKTEDTAVYYCVRHENFGNSYVSWFAHWGQGTLVTVSS VL: ELVVTQEPSLTVSPGGTVTLTCRSSNGAVTSSNYANWVQQKPGQAPRGLIGGTNKRAPGTPARFSGSLLGGKAALTLSGVQPEDEAVYYCALWYPNLWVFGGGTKLTVL",13.6,,
"AC3803 (CD3.299) (scFv, V domains shown, Pool 3 format (remarks)) VH: EVQLVESGGGIVQPGGSLRLSCAASGFTFSTYAMNWVRQAPGKGLEWVGRIRTKRNNYATYYADSVKGRFTISRDDSKNTVYLQMNSLKTEDTAVYYCVRHENFGNSYVSWFAHWGQGTLVTVSS VL: ELVVTQEPSLTVSPGGTVTLTCRSSNGAVTSSNYANWVQQKPGQAPRGLIGGTNKRAPGTPARFSGSLLGGKAGLTLSGVQPEDEAVYYCALWYPNLWVFGGGTKLTVL",,7.96,
"AC3800 (CD3.296) (scFv, V domains shown, Pool 3 format (remarks)) VH: EVQLVESGGGIVQPGGSLRLSCAASGFTFSTYAMNWVRQAPGKGLEWVGRIRTKRNNYATYYADSVKGRFTISRDDSKNTVYLQMNSLKTEDTAVYYCVRHENFGNSYVSWFAHWGQGTLVTVSS VL: ELVVTQEPSLTVSPGGTVTLTCRSSNGAVTSSNYANWVQQKPGQAPRGLIGGTNKRAPGTPARFSGSLEGGKAALTLSGVQPEDEAVYYCALWYPNLWVFGGGTKLTVL",4.74,17,
"AC3880 (CD3.376) (scFv, V domains shown, Pool 3 format (remarks)) VH: EVQLVESGGGIVQPGGSLRLSCAASGFTFSTYAMNWVRQAPGKGLEWVGRIRTKPNNYATYYADSVKGRFTISRDDSKNTVYLQMNSLKTEDTAVYYCVRHENFGNSYVSWFAHWGQGTLVTVSS VL: ELVVTQEPSLTVSPGGTVTLTCRSSNGAVTSSNYANWVQQKPGQAPRGLIGGTNKRAPGTPARFSGSLLGGKAALTLSGVQPEDEAVYYCALWYPNLWVFGGGTKLTVL",12.9,,
"AC3884 (CD3.380) (scFv, V domains shown, Pool 3 format (remarks)) VH: EVQLVESGGGIVQPGGSLRLSCAASGFTFSTYAMNWVRQAPGKGLEWVGRIRTKRNNYTTYYADSVKGRFTISRDDSKNTVYLQMNSLKTEDTAVYYCVRHENFGNSYVSWFAHWGQGTLVTVSS VL: ELVVTQEPSLTVSPGGTVTLTCRSSNGAVTSSNYANWVQQKPGQAPRGLIGGTNKRAPGTPARFSGSLLGGKAALTLSGVQPEDEAVYYCALWYPNLWVFGGGTKLTVL",4.54,,
"AC3883 (CD3.379) (scFv, V domains shown, Pool 3 format (remarks)) VH: EVQLVESGGGIVQPGGSLRLSCAASGFTFSTYAMNWVRQAPGKGLEWVGRIRTKRNNYATYWADSVKGRFTISRDDSKNTVYLQMNSLKTEDTAVYYCVRHENFGNSYVSWFAHWGQGTLVTVSS VL: ELVVTQEPSLTVSPGGTVTLTCRSSNGAVTSSNYANWVQQKPGQAPRGLIGGTNKRAPGTPARFSGSLLGGKAALTLSGVQPEDEAVYYCALWYPNLWVFGGGTKLTVL",4.19,,
"AC3869 (CD3.365) (scFv, V domains shown, Pool 3 format (remarks)) VH: EVQLVESGGGIVQPGGSLRLSCAASGFTFSTYAMNWVRQAPGKGLEWVGRIRTKTNDYATYYADSVKGRFTISRDDSKNTLYLQMNSLKTEDTAVYYCVRHENFGNSYVSWFAHWGQGTLVTVSS VL: ELVVTQEPSLTVSPGGTVTLTCRSSNGAVTSSNYANWVQQKPGQAPRGLIGGTNKRAPGTPARFSGSALGGKAALTLSGVQPEDEAVYYCALWYPNLWVFGGGTKLTVL",18.8,,
